# In patent US10738094B2, “Peptides and combination of peptides for use in immunotherapy against ovarian cancer and other cancers” (immatics biotechnologies GmbH, priority 2015, dated 2020):
# Molecular target: HLA-A*02:01 (Homo sapiens, UniProt P04439, D140Y/D185E/D98H/E176V/E277Q/G131W/G231S/I119V/I121R/I166T/I218V/L300P/L318F/N151K/N90K/P208A/P217A/Q86G/Q94H/R138H/R169H/T345S)
# Experiment: MHC binding assay (UV-ligand exchange, beta2m ELISA)
# Conditions: binding to HLA-A*02:01 ranged by peptide exchange yield (UV-ligand exchange, β2m ELISA)
# Description: Candidate peptides for T cell based therapies according to the present invention were further tested for their MHC binding capacity (affinity). The individual peptide-MHC complexes were produced by UV-ligand exchange, where a UV-sensitive peptide is cleaved upon UV-irradiation, and exchanged with the peptide of interest as analyzed. Only peptide candidates that can effectively bind and stabilize the peptide-receptive MHC molecules prevent dissociation of the MHC complexes. To determine the yield of the exchange reaction, an ELISA was performed based on the detection of the light chain (β2m) of stabilized MHC complexes. The assay was performed as generally described in Rodenko et al. (Rodenko et al., 2006).
# 96 well MAXISorp plates (NUNC) were coated over night with 2 ug/ml streptavidin in PBS at room temperature, washed 4× and blocked for 1 h at 37° C. in 2% BSA containing blocking buffer. […] Peptide-MHC monomers of the UV-exchange reaction were diluted 100 fold in blocking buffer. Samples were incubated for 1 h at 37° C., washed four times, incubated with 2 ug/ml HRP conjugated anti-β2m for 1 h at 37° C., washed again and detected with TMB solution that is stopped with […]. Absorption was measured at 450 nm. Candidate peptides that show a high exchange yield (preferably higher than 50%, most preferred higher than 75%) are generally preferred for a generation and production of antibodies or fragments thereof, and/or T cell receptors or fragments thereof, as they show sufficient avidity to the MHC molecules and prevent dissociation of the MHC complexes.
row,Substance,Peptide exchange
1,45 (SLWQDIPDV; listed as Homo sapiens) [compound 45],“+++” (≥50 = +++)
2,222 (NLIENVQRL; listed as Homo sapiens) [compound 222],“++” (≥20% = ++)
3,76 (ILIDSIYKV; listed as Homo sapiens) [compound 76],“+++” (≥50 = +++)
4,455 (SLLKEPQKVQL; listed as Homo sapiens) [compound 455],“++” (≥20% = ++)
5,253 (GLDAATATV; listed as Homo sapiens) [compound 253],“++” (≥20% = ++)
6,4 (GIMEHITKI; listed as Homo sapiens) [compound 4],“++++” (≥75% = ++++)
7,273 (NLFQSVREV; listed as Homo sapiens) [compound 273],“++” (≥20% = ++)
8,155 (RVANLHFPSV; listed as Homo sapiens) [compound 155],“+++” (≥50 = +++)
9,295 (VLDRESPNV; listed as Homo sapiens) [compound 295],“+++” (≥50 = +++)
10,539 (ALFDAQAQV; listed as Homo sapiens) [compound 539],“+++” (≥50 = +++)
11,16 (VLFQGQASL; listed as Homo sapiens) [compound 16],“+++” (≥50 = +++)
12,346 (LLDSKVPSV; listed as Homo sapiens) [compound 346],“+++” (≥50 = +++)
13,249 (LLDGFLVNV; listed as Homo sapiens) [compound 249],“+++” (≥50 = +++)
14,496 (FLVEKQPPQV; listed as Homo sapiens) [compound 496],“+++” (≥50 = +++)
15,35 (KINDTIYEV; listed as Homo sapiens) [compound 35],“+++” (≥50 = +++)
16,356 (KLLGKLPEL; listed as Homo sapiens) [compound 356],“+++” (≥50 = +++)
17,284 (ILLSQTTGV; listed as Homo sapiens) [compound 284],“+++” (≥50 = +++)
18,463 (SLVESHLSDQLTL; listed as Homo sapiens) [compound 463],“+++” (≥50 = +++)
19,361 (ALYELEGTTV; listed as Homo sapiens) [compound 361],“+++” (≥50 = +++)
20,224 (TLIDAQWVL; listed as Homo sapiens) [compound 224],“+++” (≥50 = +++)
21,22 (IMEENPGIFAV; listed as Homo sapiens) [compound 22],“+++” (≥50 = +++)
22,608 (SLLSVSHAL; listed as Homo sapiens) [compound 608],“+++” (≥50 = +++)
23,51 (LLPDLEFYV; listed as Homo sapiens) [compound 51],“++++” (≥75% = ++++)
24,405 (ALYDVFLEV; listed as Homo sapiens) [compound 405],“++” (≥20% = ++)

row,Substance,Peptide exchange
1,395 (ALALGGIAVV; listed as Homo sapiens) [compound 395],“++++” (≥75% = ++++)
2,46 (ILTEENIHL; listed as Homo sapiens) [compound 46],“+++” (≥50 = +++)
3,574 (YLLQEPPRTV; listed as Homo sapiens) [compound 574],“++” (≥20% = ++)
4,269 (RVLEVGALQAV; listed as Homo sapiens) [compound 269],“++” (≥20% = ++)
5,270 (LLLDEEGTFSL; listed as Homo sapiens) [compound 270],“++” (≥20% = ++)
6,188 (GLFPVTPEAV; listed as Homo sapiens) [compound 188],“+++” (≥50 = +++)
7,263 (LLVSNLDFGV; listed as Homo sapiens) [compound 263],“+++” (≥50 = +++)
8,80 (FLYDNLVESL; listed as Homo sapiens) [compound 80],“++” (≥20% = ++)
9,243 (LLLNELPSV; listed as Homo sapiens) [compound 243],“+++” (≥50 = +++)
10,116 (YHIDEEVGF; listed as Homo sapiens) [compound 116],“+” (≥10% = +)
11,185 (FLIDDKGYTL; listed as Homo sapiens) [compound 185],“++” (≥20% = ++)
12,285 (QLLHVGVTV; listed as Homo sapiens) [compound 285],“+++” (≥50 = +++)
13,467 (FLAKDFNFL; listed as Homo sapiens) [compound 467],“+++” (≥50 = +++)
14,324 (FLYDEIEAEV; listed as Homo sapiens) [compound 324],“+++” (≥50 = +++)
15,165 (SLLDEIRAV; listed as Homo sapiens) [compound 165],“+++” (≥50 = +++)
16,563 (WLLPYNGVTV; listed as Homo sapiens) [compound 563],“+++” (≥50 = +++)
17,510 (KLYSVVSQL; listed as Homo sapiens) [compound 510],“++” (≥20% = ++)
18,429 (GLVNDLARV; listed as Homo sapiens) [compound 429],“++” (≥20% = ++)
19,196 (YLYSVEIKL; listed as Homo sapiens) [compound 196],“++++” (≥75% = ++++)
20,226 (MLYVVPIYL; listed as Homo sapiens) [compound 226],“++” (≥20% = ++)
21,357 (SMHDLVLQV; listed as Homo sapiens) [compound 357],“+++” (≥50 = +++)
22,287 (FLNEFFLNV; listed as Homo sapiens) [compound 287],“+++” (≥50 = +++)
23,316 (ILLERLWYV; listed as Homo sapiens) [compound 316],“+++” (≥50 = +++)
24,562 (YLEELPEKLKL; listed as Homo sapiens) [compound 562],“+++” (≥50 = +++)

row,Substance,Peptide exchange
1,546 (VMIAGKVAVV; listed as Homo sapiens) [compound 546],“+++” (≥50 = +++)
2,412 (YLDDLNEGVYI; listed as Homo sapiens) [compound 412],“++” (≥20% = ++)
3,390 (ALFMKQIYL; listed as Homo sapiens) [compound 390],“+++” (≥50 = +++)
4,209 (KLIESKHEV; listed as Homo sapiens) [compound 209],“++” (≥20% = ++)
5,267 (ALQDFLLSV; listed as Homo sapiens) [compound 267],“+++” (≥50 = +++)
6,210 (LLLNAVLTV; listed as Homo sapiens) [compound 210],“++” (≥20% = ++)
7,618 (VLFDSESIGIYV; listed as Homo sapiens) [compound 618],“+++” (≥50 = +++)
8,133 (KVLSNIHTV; listed as Homo sapiens) [compound 133],“++” (≥20% = ++)
9,177 (YLLPEEYTSTL; listed as Homo sapiens) [compound 177],“++++” (≥75% = ++++)
10,437 (SMAPGLVIQAV; listed as Homo sapiens) [compound 437],“+++” (≥50 = +++)
11,119 (FLYIGDIVSL; listed as Homo sapiens) [compound 119],“++++” (≥75% = ++++)
12,502 (RLLAQVPGL; listed as Homo sapiens) [compound 502],“+++” (≥50 = +++)
13,341 (SQIALNEKLVNL; listed as Homo sapiens) [compound 341],“+++” (≥50 = +++)
14,135 (ALSEVDFQL; listed as Homo sapiens) [compound 135],“+++” (≥50 = +++)
15,231 (FLSPQQPPLLL; listed as Homo sapiens) [compound 231],“++” (≥20% = ++)
16,478 (YLLHEKLNL; listed as Homo sapiens) [compound 478],“+++” (≥50 = +++)
17,476 (ALMERTGYSMV; listed as Homo sapiens) [compound 476],“+++” (≥50 = +++)
18,506 (KLLGKVETA; listed as Homo sapiens) [compound 506],“+++” (≥50 = +++)
19,572 (ALADLIEKELSV; listed as Homo sapiens) [compound 572],“+++” (≥50 = +++)
20,175 (YLFENISQL; listed as Homo sapiens) [compound 175],“+++” (≥50 = +++)
21,322 (TLMTSLPAL; listed as Homo sapiens) [compound 322],“+++” (≥50 = +++)
22,71 (GILARIASV; listed as Homo sapiens) [compound 71],“+++” (≥50 = +++)
23,42 (VLLQKIVSA; listed as Homo sapiens) [compound 42],“+++” (≥50 = +++)
24,336 (ILLTAIVQV; listed as Homo sapiens) [compound 336],“+++” (≥50 = +++)
